{"source": "patent CN112794907A", "about": "(ANHUI ANKE BIOTECHNOLOGY GROUP CO LTD, dated 2021)", "binders": {"B1": {"name": "全人源抗huOX40单克隆抗体B11-11 (antibody, IgG1, V domains shown)", "VH": "DVQLQESGPGLVKPSETLSLTCTVSGGSISADGFIWGWIRQPPGKGLEWIGGITTNGGYTDYNPSLKSRVTISVDTSKNQFSLKLSSVTAADTSVYYCARWFWDVSYGFDTWGQGTLVTVSS", "VL": "DIVMTQSPLSLPVTPGEPASISCRSSQSVDSDEYSFMHWYLQKPGQAPQLLIYRTDQRASGVPTRFSGSGSGTDFTLKISRVEAEDVGVYYCQQTPTYTFGQGTKLEIKR"}, "B2": {"name": "全人源抗huOX40单克隆抗体A2-1 (antibody, IgG1, V domains shown)", "VH": "DVQLQESGPGLVKPSETLSLTCTVSGDSVSDSGAYWVWIRQPPGKGLEWIGTIAPARGDTLYNPSLKSRVTISVDTSKNQFSLKLSSVTAADTSVYYCARDVWYIDYWGQGTLVTVSS", "VL": "DIVLTQSPATLSLSPGERATLSCRASEDIGTWLAWYQQKPGQAPRLLIYHTDLRATGVPTRFSGSGSGTDFTLTISSLEPEDFAVYYCQQYASYPLTFGQGTKLEIK"}}, "key": {"rhOX40-Avi-His-bio [1]": {"molecular_target": "T1, rhOX40-Avi-His-bio (human, UniProt P43489 29-214, biotin joined covalently to the Avi tag by BirA)", "T1 construct": "range 29-214; Biotinylated form of rhOX40-Avi-His, captured on the SA chip for SPR; also called 生物素标记的抗原rhOX40-Avi-His-bio; huOX40; not shown: Avi tag and His tag from the vector pCD-Avi-His", "T1 sequence (looked up)": "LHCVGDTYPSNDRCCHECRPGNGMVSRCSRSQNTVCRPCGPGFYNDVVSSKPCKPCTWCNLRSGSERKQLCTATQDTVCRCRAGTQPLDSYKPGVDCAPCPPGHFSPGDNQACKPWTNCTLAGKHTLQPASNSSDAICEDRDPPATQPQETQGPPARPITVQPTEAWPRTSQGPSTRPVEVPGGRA", "assay": "SPR"}, "rhOX40-Avi-His-bio [2]": {"molecular_target": "T1, rhOX40-Avi-His-bio", "assay": "SPR, Biacore T200, rhOX40-Avi-His-bio on SA chip, antibody as analyte"}}}
{"binder": "B1", "values": [{"measurement": "fold increase of affinity over B11", "setting": "rhOX40-Avi-His-bio [1]", "result": "~650 倍"}, {"measurement": "Kd", "setting": "rhOX40-Avi-His-bio [2]", "result": "~0.776", "unit": "nM"}]}
{"binder": "B2", "values": [{"measurement": "fold increase of affinity over A2", "setting": "rhOX40-Avi-His-bio [1]", "result": "~540 倍"}, {"measurement": "Kd", "setting": "rhOX40-Avi-His-bio [2]", "result": "~0.2", "unit": "nM"}]}
